Source: the DeepSol protein solubility set

Assay: soluble on expression in E. coli; label from the status in PepcDB or PDB records

Sequence | soluble on expression in E. coli
MGSDKIHHHHHHMSTDNLALNIREKAMEAGFDHCGIVKIDALADYVSRLEERAAAFPRSKPFYDFLSKLGTPQAAHEWGKSVIVCAMRYGKYRIPNRADRHIGKLYLYGGYRQPAYSQEYAGMAGFEAFLAAEGIRFAKDVFGIAPARLCAAQANLGVIRNNNFLYTEHGSWVWLETWLIDRELEYRESPNTLPSCPPGCSKCIDACPTGALKAPFLTDMGTCIARLTYSPSGEAPEPLRESMGTWLYGCDECQNACPMNKGRWEEKEEYPRLEELSRHISLEKIAEMDEHAVSDILSPMFWIIGKEKLWMWKCNVIRAMVNGKDPGHHSTIRKLCDDGNENVRRTAEWACRQLGI | not soluble
MNSALYANYLNILKQELVPALGCTEPIAIAYAAAKAHQVLGEFPDSVNMSLSGNIIKNVKGVTVPNSGGLKGIDVAAILGIVGGNADKALEVLSEITEDDIARTRELVKQHVCSCSLVEGVDNLYITAKVIKGDHFASVTIEHQHTNITRIEKDGEVILDNPYQAECKTVIDKSKLTVKDILDFADQVRIEDVQPIIDRQIKLNSAIAQEGLDNNYGAQIGKTLMHVWGKSVTTRACARAAAGSDARMGGCSMPVVINSGSGNQGMTVSLPVIVFADEWEVSHEKLCRSLVVSNLIAIHQKYYIGSLSAYCGAVSAACGAGAGITYMYGGTYQQVSLTIINTLGNVGGIVCDGAKPSCAAKIASSVDAALMAFQLSIQNKSFLPGEGIIKDDIEETIKSMGYIGRVGMRSTDTEILNVMIDRADINQGC | not soluble
MYPSDFASQLNVLSLKEMKEAIHHLLDIRDENTWMLFGTLPIYPCLNDEYDQHLLQRLRKSKNVTMRNDPDGRSRLNVNVFTGDVIVTDFGDENGTISNIQKDKLTDVFNQWLNTDLAQSLNCHCAEYQCLGPNVLVKNMYYPNTDFKKKEQIMHQHQIFS | not soluble
MTQQHPHLLEPELGEFLTALKNTPSRLTARTAAWLCIWTASRPGMVRLAEWKEFDLDKATWTTPAAKMKMRRDFVCPLPHQAIAALKELHCLTGRSRWLFPGVGAKNPTISENTINKVFATIGYKGRLVGHGTRHTASTLLREHGWPKEHVEAQLAHKEEGLEHHHHHH | not soluble
MGHHHHHHSHMLNSTGELEFSNEEDPEIISQLTSLPLSGGKSSAGVPEKTGYPDSVYVMAANIFQGIRIEKSAQKVLIKYGNEPLRSLSESEDQSFQRLSYELAFSALKYQDILETILIDSCIFPSTTTPDHLSSLIIVMLYDFQDRKFQTRVLSDNEEPISEVQEVENLLNSFKIKLAAALARCRIKHDALSIYHILPETVRKQELRASTLPLYAWINTCKISPEEVYNNLKRRGYNKVKSVLHIDDKVFAVDQHCYDVLIFPSHLKNDLINIDLFKDYKLIFQVN | not soluble
MGSDKIHHHHHHVVNQAQKMNFLTHLHLADISKTHLAANVAGNYIQAPIAQAPVEFRQALWLNQEINTLCASHELTIELMEAFPAPLRSIAAELMAVSFDYYLAYYWEEYHHQPLNEFSHKAYDALENFAAQGIDQYHPEALIKLLPTIRSQDWLGSYATENGLQQALAQVAKPHPQAALFKDAHKVVNKMQIEIETTFRTFYPQLMAYSRIWSRKTPAEYLP | not soluble
MELETEIIVDKVDVENPILITSFPGIGLVGTIATAHYIMELKLESIGIVDSRLLPPVASLYEGVILPPVRVYQSADLGFVLIHSDVPIIPQAAIDMSKKIVQFAAEINARRVYSFAGVATFEDKKRVFAAATSKELLEEVKDHAEIFKTGTISGIAGSIMNECVAAKMPGIVLLGETLGFNPDPRAAASLIEAVNKIMNWNVSVEKLLKEAEMIEAQMQKLAEQARMQEERKEEFPMYG | soluble
MPDGWRKMGVLVFYDLPVVSPEQRLAAVRFHKFLLADGFERMHYSIYARYCGSMERAATYERRVEQALPAVGHVNLLKLTDRQMVGMRKWIRGNYRAPENAEFVPPAQYQLFLEHHHHHH | not soluble
DAAGVSEVEVEATEIENLKAELSEMEDKFLRARAEIANMSNRNKNERELLVRYRSQDLGKKILPSIDNLERAMAIEVSDEQGESLKKGISMVLESITVALKEEG | not soluble
MGSDKIHHHHHHMGNTVAMILAGGQGTRLGVLTERIAKPAVPFGGKYRLIDFTLSNCVNSGIYRVGVLTQYRPHVLSKHIGIGRPWDLDRKDGGVEILPPYVGRHESDWYKGTANAVYQNLEFLEENDAELVLILSGDHVYAMNYNDLIDYHLLKEADGTIACMEVPIEEASRFGIMITDVDGRIVDFEEKPAKPRSNLASLGIYVFNYEFLKKVLIEDENDPNSSHDFGKDVIPRILRENLGSLYAFRFDGYWRDVGTLRSYWEANLELVLPVPPFNLYDPNWRFFTHTEEMPPAYVAPGSKVSTSLVSEGAEVYGNVFNSVIFQGVKIGRGTVVKNSVIMTRTEIGENCYLENVIIAENVKIGSNVRMGVGEDAESKLDPKVYSGLLTVVGMNSVIPDDMVIGKNCVIGIGVRPEDFKSKTLESGDYVIVREE | not soluble
MPPLTHQSLKCVIKHLEANARIQLSQRCPSLHKTEKLIPLTIYNLELDQCSVKINNTDYSLTLTSNNFSSPFDLDQFGAIDLDEVDVDGNDVLVDNRSFKEEKNRLLRMRIEIRKMPDGVEKQEATAAVVALEQLEDNRWLRREPTSSSMMNLSINSQFIIFRGEKLCYNMKLHQAFRYLVAKLFSGRRCPIQVKKLSVECKGILRVPADLRFKVSHLEILGSGVDKIVEAFKPLIGRIQTITVNDDFNISHPIFQTALILKNPNENLFGAASASNVRVENNEQFSSLSERVVDLIRIWQSHGHKIGTIWNFSMRSQEQALDSIMYLRRQLGASFSGHKNLSQYGRSAAISLNNSDEIYVSFKQQQIKVWNLKVVVRRKRL | not soluble
ADAYFYNPITSQRSNFPLSYPMTAKSFMEKHGLLDREEYLKRLAENENNVELVNYPLEKLEFNRRVNKLNVLMISVNNLRADALNQEEMPNLYEFAQQNQNFRKHYSSSNDTYGAFGLFYGLPTSYASSIKAQGASPVLLDVLKDQGYTFGLFSGSGFEDDLYSEIVFRGVNLAEKLDGTQAHTDKQSIADWNMWLTEKANQPWFSYIEVTTVDNFESIPSNSKEDMSASERFKNAYEFAVKSADDKVGGIIKTLEDAQLLANTVVIVTSNHGSEFNETNTNSWGANSNYSRYQLQVPMVIHWPGMMAGEFNHSTSHLDLSVTLLQDMLGVSSNPYDYSSGRNLFDESRRRWILAGDTRELALITNNQTTVIDKFGNYKLYDENYKRMRDETPKLPVLMQGLTELQRFYSKSE | not soluble
IHHLPPVKAPLQTKKKIMKHCFLCGKKTGLATSFECRCGNNFCASHRYAEAHGCNYDYKSAGRRYLEEANPV | soluble
GSHMASSEDEKLSFEAVRNIHKLMDDDANGDVDVEESDEFLREDLNYHDPTVKHSTFHGEDKLISVEDLWKAWKSSEVYNWTVDEVVQWLITYVELPQYEETFRKLQLSGHAMPRLAVTNTTMTGTVLKMTDRSHRQKLQLKALDTVLFG | soluble
MGSDKIHHHHHHMKNRFLIICTVLFLSSCLAYGQEQASVTNDFSENKQGCIQHPWQGKKVGYIGDSITDPNCYGDNIKKYWDFLKEWLGITPFVYGISGRQWDDVPRQAEKLKKEHGGEVDAILVFMGTNDYNSSVPIGEWFTEQEEQVLSAHGEMKKMVTRKKRTPVMTQDTYRGRINIGITQLKKLFPDKQIVLLTPLHRSLANFGDKNVQPDESYQNGCGEYIDAYVQAIKEAGNIWGIPVIDFNAVTGMNPMVEEQLIYFYDAGYDRLHPDTKGQERMARTLMYQLLALPVAF | not soluble
MMSRVTCSHMSFQTAIRPAESVDIADIRRVARATWHTVYDDILGAETVEEHLKEGYTPPLLEQMIELDEVGLFVSTADDDVVAYMSCGMTDATGFGDLDLYVHPDYWGEGIGTELLHRGEQHLHDLSVRKIRDEVLAENEVGNAFYRAHFEKVGQRTAKVGGQEHPVNVYERRL | not soluble
MSDDGSDTSFEEPHGDFDYTLLFEKFNKEVPKMEEVMKAAKKFGASHRHLINKFILEPSMSAKKMNLMFAKHLTTAIWKRHPDTVMQIQTNREEARQLSKLIVKTMNDDEGKGPKPFRPWRFVISTDEKSPTEFVTMTGCGRNSSVISEASDLTKVERALLLVILEEMISSDGTVQMDWVHSQIRHEPCKMPGPKCDIFMAKMMRQRYFLMTDENEVAEITPRILVELEPWLRAKFTGDLKTCELCRKIISRSVYTAECQKCHALCHFNCFKNATIISHQDNVECQKCNQNLSLNEVLKQIDTKKATGVPRSRDTVARSPSPDSDVPKAPSRTQRAKSKSKTPAPVDSDDDMTITPRPTRGKRNQRVPDSDSE | not soluble
VVTLGYWDIRGLAHAIRLLLEYTETPYQERRYKAGPAPDFDPSDWTNEKEKLGLDFPNLPYLIDGDVKLTQSNAILRYIARKHNMCGETEVEKQRVDVLENHLMDLRMAFARLCYSPDFEKLKPAYLELLPGKLRQLSRFLGSRSWFVGDKLTFVDFLAYDVLDQQRMFVPDCPELQGNLSQFLQRFEALEKISAYMRSGRFMKAPIFWYTALWNNKKE | soluble
MSLSASQTSDVPTLLVKIFGKDRPGITAGLFDTLAAYSVDVVDIEQVVTRGRIVLCALVTEPPRGLEGDLRATVHSWAESLKLQAEIISGIGDNRPRGFGRSLVTVLGHPLTAEATAAIAARITESGSNIDRIFRLAKYPVTAVEFAVSGVETEPLRTALATEAAALGVDIAVVAAGLHRRAQRLVVMDVDSTLIQDEVIELFAAHAGCEDEVAEVTAAAMRGELDFEQSLHARVALLAGLDASVVDKVRAEVRLTPGARTLIRTLKRLGYQVGVVSGGFTQVTDALQEQLGLDFAQANTLEIVDGRLTGRVTGEIVDRAGKARLLRRFAAAAGVPLSQTVAIGDGANDLDMLNAAGLGVAFNAKPVVREAAHTAVNVPFLDTVLYLLGITREEVEAADTLADDLGDGPGREGHHHHHH | soluble
MFQDVLVITVAVGRGGDGAVSFRREKFVPKGGPDGGDGGRGGSVYLRARGSVDSLSRLSKRTYKAEDGEHGRGSQQHGRGGEDLVIEVPRGTRVFDADTGELLADLTEEGQTVLVARGGAGGRGNMHFVSPTRQAPRFAEAGEEGEKRRLRLELMLIADVGLVGYPNAGKSSLLAAMTRAHPKIAPYPFTTLSPNLGVVEVSEEERFTLADIPGIIEGASEGKGLGLEFLRHIAGTRVLLYVLDAADDPFKTLKTLRKKVWAYDPGLLGRPSLVALNKVDLLEKEAVKALADALAREGLAVLPVSALTGAGLPALKEALHALVRSTPPPEMPKPVPRKEVQAGVEVVPVAEGVYEVRAPEVERYLARIKGDLMEAAGYLQEVFRRQGVEAALRAKGVRAGDLVRIGGLEFEYIPEV | soluble
MSNAIEINELHWLLAVTQNIDVGIVVLDLNYRVTVWNTFMENRSGVVPYVAIDKTFFELFPEVNRQWLSKKIDNVVTLGTPAFTIWEQRPYLVRFKNYQPITGHEEFMYQNTTLFPLRSTTGAISHVCLVIYDVTDVAANRN | not soluble
MLLTLNALPFVLVNCGGKKKPAPPPKAAAKPMAAPAGGAGGAGGAGGAGKSDSFDSKKQDIPSSKKEEPVAPKKEDEGNYEELAIPQ | not soluble
MGSDKIHHHHHHMNSPKNSLYEEKSGHYYNAVNPNLLKHIKKEWKEVLDIGCSSGALGAAIKENGTRVSGIEAFPEAAEQAKEKLDHVVLGDIETMDMPYEEEQFDCVIFGDVLEHLFDPWAVIEKVKPYIKQNGVILASIPNVSHISVLAPLLAGNWTYTEYGLLDKTHIRFFTFNEMLRMFLKAGYSISKVDRVYVDHKMYEPLIEELYGICKKYRLGSGFMAETVVFQYIIEAEKSQL | not soluble
